Experimental data published in the DeepSol protein solubility set.

Test: soluble on expression in E. coli; label from the status in PepcDB or PDB records
For “MTMFGKIFSKKTPKTDIKSNGEALNASEIEQFIKDTLSHYISDNFPQGVLAVCQQLSITQKKKITIKLLMPFVCQGELDLLAQTLSENLARTVNFEIDLAIKPVRQFSLGNDKNKAGQEGMLQGKVANIIAIASGKGGVGKSTTTVNLAYALMCEGARVGILDADIYGPSIPSMLGLKNEKPSSSDGKLMTPVDAKGLSAMSIGFLVDEADATVWRGPMASSAFNQLLNETDWPELDYLLIDMPPGTGDIQLTLAQKVPVAAAVIVTTPQDIALIDAVKGIAMFDKVKVPVLGIVENMSYHLCENCGHKSHIFGEAGGEHMAEDHETKLLGQLPLDITIRQDADFGESDIIENSAGEIANHYRKIARNVSAQLFLQCDTASPLTATVAHKALEHHHHHH”, the “soluble on expression in E. coli” value was “soluble”. In the case of “MSLTEIGIVAVGGYNEMGRNMTAIIIGEDIVILDMGLRLDRVQIHEDVEIDKMHSLELIEMGAIPDDTIMKEINGTVRAIVCTHGHLDHIGAIPKLAHRYNAPILATPYTAAIIRQQIESERKFEVCNRVIPLQAGGTYQVTEDISIEFIRVQHSIIDCVLAAVHTPAGAVLYACDFKLDRTPTMGEAPDFDRFKSLGKEGVIAMITESTNAGRSGKTPSEQIAKDMVRDVLLGTEESGVGMIVTTFASHIARLKAIIEAAEEMGRIPVLMGRSMERYVGAARDIGYLDLPSNVEIYGTRKDVDRAFKRIMQEGKNKYLPIVTGHQGEPGSILVRVANGETPYTIDPGDRIIFSANVIPSPMTQANRYALETKLRMKGGRIYDDVHVSGHAYREDHWELLRMVNPEHVIPAHGDMEMHGHYIEMAEDAGYVLGDTVHLLRNGEVLYIEEEGHHHHHH”, the “soluble on expression in E. coli” value is reported as “soluble”. In the case of “MGSDKIHHHHHHLDVDTGKLQSLAASRYGARGARAVDDWLQLLRNDTSASEANQLARVNAFWNQRVLSGEDTHIWGRADYWATPLETLGKGAGDCEDYVIGKYFSLISLGVPTEKLRFIYVRARIGGPYSNQQIAHMVLGYYPTPNAVPLVLDSLISTIMPANERRDLTPVFSFNADGVYVDGKQASPVDRLSRWRDLLLRMEREGLRP”, the “soluble on expression in E. coli” value is reported as “not soluble”. In the case of “MGSDKIHHHHHHMSIINDEKLRKYVPEERLDKVKERLEILDTYDLSYITSNFIWKGRRFSPEQVWPIKIYYGKADRELAEKIEKEFRRFVALTIVFPKRLFTASGAVDLYWHFLILHTKEYEKFSKSVWGIPRYDNVLLKKLLNNDDNSFRLRFNLKPDNVNEITILPKKALESLDDKTLDRVLMLERLDLSPISENLLHTIDEFKFVPEQRFPLIAHFGKLDNNIVKRIELEFKKWMALNIAYGGKELNYAAPSGVVDMYFHLFILHTILYKQFCEIFFGKFIHHPLGELF”, the “soluble on expression in E. coli” value is reported as “not soluble”. For “MAKEGSVAPKERINVTFKPATGGNQEEIELPLKLLAIGDYTHRRDERKVEDRKPISIDKTTFDEVLAKQELELTLSVPNRLQDEEGVAEELPVKLRVNSMKDFNPASLVEQVPELKKLMELRDALVALKGPLGNAPAFRKAIEGVLADDESRGRVLGELGLKAPAPDA”, the “soluble on expression in E. coli” value was “not soluble”. With “MGSDKIHHHHHHMSSLQISQGTFRLSDTKTLKIDHLSVAAGESWAFVGSNGSGKSALARALAGDLPLLSGQRESHFSRVTRLSFEQLQKLVSDEWQRNNTDLLSPGEEDTGRTTAEIIQDEVKDPARCARLAEQFGISALLDRRFKYLSTGETRKTLLCQALMTDPQLLILDEPFDGLDVNSRQQLAALLADLHSAGITLVLVLNRFDEIPEFVQFAGVLADCTLSETGEKSSLLQQALVAQLAHSEKLDGITLPEPDVPPARHALADSAPRIVLNDGVVSYNDRPVINHLSWTVNPGEHWQIVGPNGAGKSTLLSLVTGDHPQGYSNDLTLFGRRRGSGETIWDIKKHIGYVSSSLHLDYRVSTNVRNVILSGYFDSIGIYQAVSDKQHKLVQQWLDILGIDKRTADAPFHSLSWGQQRLALIVRALVKHPTLLILDEPLQGLDPLNRQLVRRFVDVLIGEGATQLLFVSHHAEDAPDCITHRLAFVPSGDGYTYQLGPVA” the “soluble on expression in E. coli” value was “not soluble”. With “MTVIVGPKTKPPEAIKDASMARQKQMVNAHYDRLASAKERGEKVAATFVPGNLNELLMCFDMVNNLPEVNAIQNGLRRQSGGYVMEAEKLGHSEDVCTYVKSDIGMMAKGNIGPNGKPLPDPDVLLLSYTGCFTFMKWFELLRRQYKCETIMFQTPYLADGRITKDMISYMVKQLRQDVIPKLERISGVKFDIDRLREYLRKSAKAEDDHVWVLQSAKHKPSPIDAYFGGIYYIGPIFGAFRGTDDAIEYYKFLRAEVEQRIAQGKGPVTPDGDMGQERYRLVVEGPPNYTNFRQFWKMFYDEGAVVVASSYTKVGGTYDYGFRHDPDRPLESLAEYCLNVYTNRNLPMRVDMLENYINEYEADGLLINSIKSCNSFSAGQLLMMREVEKRTGKPAAFIETDLVDPRYFSAANVKNRLESYFQMIEQKRAGFRGAA” the “soluble on expression in E. coli” value was “not soluble”. With “MKSLIDHFDIASAKVQSLVQETLHHADDGELYLEYTESETLLFDNRQLKNGSFHQDMGFGLRVVAGEATGYAHSSELSAAALKRASEAAKTVTYKNHAGPYSVAPQQTNKKLYQPHNPLNAPSFEEKSALLQKIDDYLRAKNDKLHQVTVSLSGSLQHVEILRADGNLVRDIRPLVRLSISVVAAEGNRRENGFYGCGGRQAFSQFISEENWKKAADEALRMALINLEAEAAPAGTFDVVLANGWPGVMLHEAVGHGLEGDFNRKKTSAFSGLLGQQVAAKGVTVVDDGTIPKCRGSLTIDDEGTPSGYNILIENGKLVGFMQDRLNARLMGVNPTGNGRRESYAYAPMPRMTNTIMLGGDKTPEEILSSLKSGIYAVSFGGGQVDITSGKFVFECTEAYRVENGKIVAPIKGATLIGNGPEAMKRITMIGNDSKLDNGIGTCGKAGQSVPVGVGQPHLRINNMTIGGTELT” the “soluble on expression in E. coli” value was “not soluble”. In the case of “MNLSNLWQSCLLQLQDQVSASDLSTWLRPLQADVVADNHIVLYASNMFVKGWVETHYLAQIQQICQTLAQNPELRISLKEGVKPAPKIVESTPNTSLRSESAVDFQAESSASVKFESHLNTKHLFDNFVEGKSNQLARAVGQKLAQAPGEPSANPFFLYGGTGLGKTHLLHAIGNGILADKPNARVLYIHANNFMQHMVKAVRDNKMDQFKKFYRSLDALLVDDIQFFAEKEKTQEEFFHIFNSLFETGRQIILTSDRYPKEIEKIEERLKSRFGWGLTTAIEPPDLETRVAILLKKAEEHNMNLPEEVAFFIAQRLRTNVRELEGALNRVKAMQDFKGGDIDIDFVRDTLKDILALQERLVTIENIQKVVAEYYRIKVSDLKSKSRARSVTRPRQIAMALAKELTNRSLPEIGRAFDRDHTTVLNACREVPKFREQDNSIQEDWANLIRTLSALEHHHHHH”, the “soluble on expression in E. coli” value is reported as “soluble”. With “MPTALIADDEPNLSAELAERLAELWPELEIVAMPRNGVDTLAALNAARPDIAFLDIRMPGIDGLKLASLVPDVHVVFVTAYDEYAVEAFDRSAIDYLLKPVTDERLLRCIAKLQRGGFAPPGAQALSDARMPKEPTLIRWLTVGLKDTTRLVSVDDVLYFQALDKYTEVVTAGERHVIRTPLKELLQRLDQDRFAQVHRGVIVAYAAIDRIERDLLGRLCIHLHGHRDVLPVSRAYAGLFKHM” the “soluble on expression in E. coli” value was “not soluble”. In the case of “VTKIVSHRGANRFAPENTFAAADLALQQGADYIELDVRESADGVLYVIHDETLDRTTNGTGPVGHMLSSEIDTLDAGGWFDDRFKGAIVPRLDAYLEHLRGRAGVYIELKYCDPAKVAALVRHLGMVRDTFYFSFSEEMRQGLQSIAPEFRRMMTLDIAKSPSLVGAVHHASIIEITPAQMRRPGIIEASRKAGLEIMVYYGGDDMAVHREIATSDVDYINLDRPDLFAAVRSGMAELLLASNSSSTC”, the “soluble on expression in E. coli” value is reported as “soluble”. With “MGHHHHHHSHMPVVIKEVPSSEAAEDVMVAAPLVCSGKVLEVQVVNQTSVHVDLGSQPKENEAEPSTASSVPLQDEQEPPAYDQAPEVTLQADIEVMSTVHISSVYNDVPVTEGVVYIEQLPEQIVIPFTDQVACLKENEQSKENEQSPRVSPKSVVEKTTSGMSKKSVESVKLAQLEENAKYSSVYMEAEATALLSDTSLKGQPEVPAQLLDAEGAIKIGSEKSLHLEVEITSIVSDNTGQEESGENSVPQEMEGKPVLSGEAAEAVHSGTSVKSSSGPFPPAPEGLTAPEIEPEGEATAE” the “soluble on expression in E. coli” value was “not soluble”. In the case of “MMITRELVLKANREQPPYASILALAASGFSLEKSVQFSEKQQLALNLDGELLSNDVEIARIIAQSTDAADSLLGSSIIDFAVVDDLTNFIADAVTKNDYSLLLGKDFPTKILDNSLTVADFAIFSVAHNNPQLKAKFSGIIDKVLKEPTLAAAHNFVGLYKSAAAPTATASTGKEKKKDEGKFVELPGAEKGKVVVRFPPEASGYLHIGHAKAALLNQYYQQAFEGQLIMRFDDTNPAKENAHFEHVIKEDLSMLNIVPDRWTHSSDHFEMLLTMCEKLLKEGKAFVDDTDTETMRNEREQRQDSRNRSNTPEKNLQLWEEMKKGSPKGLTCCVRMKIDMKSNNGAMRDPTIYRCKPEEHVRTGLKYKVYPTYDFTCPIVDSVEGVTHALRTTEYHDRDDQYYFICDALGLRRPHIWEYARLNMTNTVMSKRKLTWFVDEGHVEGWDDPRLPTVRGVMRRGLTVEGLKQFIVAQGGSRSVVMMEWDKIWAFNKKVIDPVAPRYTALDSTSPLVSIELTDSISDDTSNVSLHPKNAEIGSKDVHKGKKLLLEQVDAAALKEGEIVTFVNWGNIKIGKIEKKGAVITKISATLQLDNTDYKKTTKVTWLGDVKAEAGKTIPVVTADYDHIISKAIIGKDEDWKQFINFDSVHYTKMVGEPAIKNVKKGDIIQIQRKGFYIVDQPYNPKSELSGVETPLLLIAIPDGHTGKEAEKPPKGAPVSAAASSGGSDALQLYNSIEQQGGIVRDLKTKDAKSQATKDAIAKLLDLKKKYKELTGSDHKPGAPPSAPAPTTPSSSESNSALNIYNLIEAQGLLVRELKGKDAKSQATKDAIAKLLELKKQYKEVSGSDHKPGVPPAASVASAPAPAPAAGSTNALDIYHQIESQGALVRELKGKDAKSQATKDAIAKLLALKKQYKEVTGSDHKPGVVPVSAPAPTPLAGGADIAGQIEAQGVLVRDLKNKDSKSQETKDAIAKLLELKKNYKEVTGSDYKPGPAPAAAPAKVTVPAPSVSGGDTLSKQIDDQALLVRELKMKDAKSQETKDAIAKLLQLKKQYKDATGSDYKPAPAQLAASAAAAPAPAPAFDEAALLKEIEEQGAVVRDAKSKDPKSQDSADAINKLLALKANFKKATGKDFPAPSNAQSKKGKKK”, the “soluble on expression in E. coli” value is reported as “not soluble”. In the case of “MEDDPVWRFDDRDVILYNIALGATTKQLKYVYENDSDFQVIPTFGHLITFNSGKSQNSFAKLLRNFNPMLLLHGEHYLKVHSWPPPTEGEIKTTFEPIATTPKGTNVVIVHGSKSVDNKSGELIYSNEATYFIRNCQADNKVYADRPAFATNQFLAPKRAPDYQVDVPVSEDLAALYRLSGDRNPLHIDPNFAKGAKFPKPILHGMCTYGLSAKALIDKFGMFNEIKARFTGIVFPGETLRVLAWKESDDTIVFQTHVVDRGTIAINNAAIKLVGDKAKI”, the “soluble on expression in E. coli” value is reported as “soluble”. For “KSNYVRVIPNPKVPTDYPAITIEMNDTVSSEQTIEALKSIERVMQEVESQTIADHGQGMIRDVLSYNRSRTEGRVLVPLVDEEIRPFNTFELARRWREAMPVIPGMKSIKIREQSAGGGDRDEFGYLLFGSNINELNQAGRYLIERLQQEEGLFDISSSIDSGSKEVLLSLAPVAYDLGLDLTMIAQQVGGSFYGGEAQRLIRDGEEIKVMVRYPQLTREAFSSLRYAVITTPAGKKVMLGDVVNISEQPGVSTIRREGGYQTVYVYGSIDEELVEPQEIVKIIDDSILPDMKKLHPSVKTELGGDIEEQAAQRNEQ”, the “soluble on expression in E. coli” value was “not soluble”. In the case of “MESSIKVGISSCVLGERVRFDSGHKVSNFVTKELSNYFDFVSVCPEVGVGMPVPRPTIRLISNEERIALVETKNPDNDHTDNMLTYSANKVDELQNEQLCGYIVCAKSPTCGMERVKVYSKNNAAKEGVGLYTKTLMEKMPWLPVEEDGRLNDPVLKENFITRIYCLNDFYESMAGEPTRGKIIDFHSRYKLTLMAHHPESYRSLGRLVADVASYEIDEFYREYRLGLMTALSNRASRKNNTNVLMHLQGYFKRSLNKDEKEELATVIQDYRTGTLPLLAPLTLIKHYLNAYPDEYLQRQKFLEPHPQEMRLRYGL”, the “soluble on expression in E. coli” value is reported as “not soluble”.
